The values below are quoted from earlier work in patent US4287185A, “Method for the detection of viruses” (Suntory Ltd., priority 1978, dated 1981).

For this data set the following is noted: mouse, in vivo.

B1: neocarzinostatin (protein, UniProt P0A3R9 35-147, looked up)
Neocarzinostatin: AAPTATVTPSSGLSDGTVVKVAGAGLQAGTAYDVGQCAWVDTGVLACNPADFSSVTADANGSASTSLTVRRSFEGFLFDGTRWGTVDCTTAACQVGLSDAAGNGPEGVAISFN
notes: carcinostatic agent having 109 constituent amino acids, already put into clinical practice
Take B1: the “LD50 compared with that of SP (about 3.5 mg/Kg)” value is “almost the same”.
